Results published in paper PMC2948513 (PLoS ONE, 2010).
Non-standard residues stand in square brackets, D forms with d. No end group written: not given here. *: point of attachment. Biotin = O=C1N[C@H]2[C@H](CS[C@H]2CCCCC(=O)*)N1; pS = N[C@@H](COP(=O)(O)O)C(=O)O

Columns and labels:
Ezrin N-terminus, 1-310 [1] = target: Ezrin N-terminus, 1-310 (UniProt P15311); assay: SPR, peptide on streptavidin chip; conditions: reference: non-phosphorylated NEP-NT peptide; sites S6
[2] = target: PTEN C-terminal domain, 367-403 (UniProt P60484); assay: SPR, peptide on streptavidin chip; conditions: reference: non-phosphorylated NEP-NT peptide; sites S6
Ezrin N-terminus, 1-310 [3] = target: Ezrin N-terminus, 1-310 (UniProt P15311); assay: biotin-peptide streptavidin-agarose pull-down, MBP blot; conditions: reference: non-phosphorylated NEP-NT peptide; sites S6
[4] = target: PTEN C-terminal domain, 367-403 (UniProt P60484); assay: biotin-peptide streptavidin-agarose pull-down, PTEN blot; conditions: reference: non-phosphorylated NEP-NT peptide; sites S6
[5] = target: T1, fusion protein of the maltose binding protein (MBP) and the N-terminus of Ezrin (amino acids 1-310) (human, UniProt P15311 1-310); assay: SPR; Biacore3000; biotin-labeled NEP peptides coupled to streptavidin (SA) chip to ~1000 RU; HBS-P buffer (10 mM HEPES pH 7.4, 150 mM NaCl, 0.005% Surfactant P20), 25°C, 30 µl/min; reference surface without peptide subtracted; MBP Ezrin-NT 0.05-0.8 µM, GST PTEN-CT 1.6-12.8 µM; conditions: both partners purified
T1 construct: Ezrin, human, N-terminus, amino acids 1-310; Cloned into the EcoRI/SalI sites of pMAL-c2; also called MBP-Ezrin-NT; MBP Ezrin-NT; source: E. coli DH5α, precipitated by Amylose-resin

Row | KD (Ezrin N-terminus, 1-310 [1]) | KD [2] | binding against the reference (Ezrin N-terminus, 1-310 [3]) | binding against the reference [4] | Kd [5] [nM] | Molecule
1 | same; reference ∼5.8 | weaker; reference ∼0,71 | same | weaker |  | Neprilysin (NEP, CD10) N-terminal cytoplasmic domain, 2-23 (from UniProt P08473) pSer6 peptide (pNEP-NT)
2 |  |  |  |  | ~5.9 | GKSE[pS]QMDITDINTPKPKKKQRK(Biotin) (neprilysin (NEP, neutral endopeptidase 24.11, CD10), human, N-terminal cytoplasmic domain, amino acids 2-23, serine 6 phosphorylated; C-terminal lysine that carries the biotin, named in words only; It is surmised that the biotinylated lysine is an extra residue after aa 23; also called pNEP-NT; phosphorylated NEP-NT; source: synthetic peptide (Peptide Specialty Labs, Heidelberg))
3 |  |  |  |  | ~5.8 | GKSESQMDITDINTPKPKKKQRK(Biotin) (neprilysin (NEP, neutral endopeptidase 24.11, CD10), human, N-terminal cytoplasmic domain, amino acids 2-23; C-terminal lysine that carries the biotin, named in words only; It is surmised that the biotinylated lysine is an extra residue after aa 23; also called NEP-NT; non-phosphorylated NEP-NT; source: synthetic peptide (Peptide Specialty Labs, Heidelberg))
